The source of these data is publication PMC9159944.

The target in test [1] is S. cerevisiae recombinant MCM^ybbR-LD655-Mcm6 (MCM2–MCM7 complex), loaded on origin DNA (S. cerevisiae) (UniProt P29469).
The target in test [2] is Chimeric S. cerevisiae MCM^(Mcm3-YDF, ybbR-LD655-Mcm6) with a humanized Mcm3 subunit, loaded on origin DNA (S. cerevisiae | human) (UniProt P29469).

Chain of UniProt P29469 (P29469 whole entry, looked up, change not shown, tested part not stated): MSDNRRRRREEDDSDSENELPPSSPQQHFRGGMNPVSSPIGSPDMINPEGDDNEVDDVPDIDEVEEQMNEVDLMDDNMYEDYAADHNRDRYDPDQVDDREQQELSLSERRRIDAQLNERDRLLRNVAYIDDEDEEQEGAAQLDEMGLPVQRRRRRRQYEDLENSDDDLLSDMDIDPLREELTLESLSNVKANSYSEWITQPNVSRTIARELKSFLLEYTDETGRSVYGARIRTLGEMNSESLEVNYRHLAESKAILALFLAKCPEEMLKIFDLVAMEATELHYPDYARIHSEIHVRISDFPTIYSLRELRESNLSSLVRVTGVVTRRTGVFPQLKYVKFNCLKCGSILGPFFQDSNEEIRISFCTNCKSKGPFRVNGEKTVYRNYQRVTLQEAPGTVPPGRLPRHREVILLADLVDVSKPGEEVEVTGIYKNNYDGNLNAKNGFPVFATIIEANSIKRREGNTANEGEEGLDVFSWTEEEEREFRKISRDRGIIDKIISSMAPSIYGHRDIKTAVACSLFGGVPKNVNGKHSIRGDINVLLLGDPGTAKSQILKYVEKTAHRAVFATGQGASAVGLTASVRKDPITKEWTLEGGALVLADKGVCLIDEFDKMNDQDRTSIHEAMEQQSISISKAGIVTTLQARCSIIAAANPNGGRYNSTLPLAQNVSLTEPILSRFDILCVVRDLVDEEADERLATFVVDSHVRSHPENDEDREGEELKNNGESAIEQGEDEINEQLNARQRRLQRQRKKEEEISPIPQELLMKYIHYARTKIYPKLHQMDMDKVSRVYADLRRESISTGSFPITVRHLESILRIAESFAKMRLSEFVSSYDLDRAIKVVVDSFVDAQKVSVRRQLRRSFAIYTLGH

As for “Human recombinant cohesin^(STAG1, SCC1-Halo) (from UniProt Q14683 1-1233; Q9UQE7 1-1217; O60216 1-631; Q8WVM7 1-1258) (complex)”, the values for the fraction of cohesin pausing of the total observation time on encountering origin-bound MCM (single-molecule cohesin translocation assay on licensed DNA, 0.15 M NaCl) in test [1] and in test [2] were 6.4% and 43%, respectively.
